This assay addresses BST4-mScarlet-I (Chlamydomonas reinhardtii). In words: Slimfield microscopy with single particle tracking and molecular counting.

In general, stoichiometry N refers to a count of units in the complex or per binding partner. As for BST4-mScarlet-I (natural protein), the interval between stoichiometry peaks was determined as 5 and the stoichiometry N was 5.

Source of the values: doi:10.1101/2023.06.15.545204.
